{"source": "paper PMC3294249", "key": {"[1]": {"target": "Francisella α2NTD (residues 1-242), bacterial two-hybrid fusion (Francisella tularensis subsp. novicida strain U112)", "assay": "two-hybrid"}, "[2]": {"target": "Francisella α1NTD (residues 1-244), bacterial two-hybrid fusion (Francisella tularensis subsp. novicida strain U112) (UniProt A0Q4K8)", "assay": "two-hybrid"}}}
{"substance": "Francisella α1NTD (residues 1-244), bacterial two-hybrid fusion (from UniProt A0Q4K8 1-244) (domain or fragment)", "values": [{"measurement": "β-galactosidase activity (Miller units)", "setting": "[1]", "result": 662, "unit": "Miller units"}]}
{"substance": "Francisella α2NTD (residues 1-242), bacterial two-hybrid fusion (domain or fragment)", "values": [{"measurement": "β-galactosidase activity (Miller units)", "setting": "[2]", "result": 1410, "unit": "Miller units"}]}
